Data as given in the supplement of paper PMC7877785.
± gives the uncertainty stated by the source.

Test: self-splicing fitness, log relative to wild type (ln ratio); higher = more splicing; Tetrahymena group I intron in knt gene, E. coli kanamycin selection, DiMSum; sequences stand for … in CUCUCU…GGAGGGAAAAGUUAUCAGGCAUGCACCUGGUAGCUAGUCUUUAAACCAAUAGAUUGCAUCGGUUUAAAAGGCAAGACCGUCAAAUUGCGGGAAAGGGGUCAACAGCCGUUCAGUACCAAGUCUCAGGGGAAACUUUGAGAUGGCCUUGCAAAGGGUAUGGUAAUAAGCUGACGGACAUGGUCCUAACCACGCAGCCAAGUCCUAAGUCAACAGAUCUUCUGUUGAUAUGGAUGCAGUUCACAGACUAAAUGUCGGUCGGGGAAGAUGUAUUCUUCUCAUAAGAUAUAGUCGGACCUCUCCUUAAUGGGAGCUAGCGGAUGAAGUGAUGCAACACUGGAGCCGCUGGGAACUAAUUUGUAUGCGAAAGUAUAUUGAUUAGUUUUGGAGUACUCGUGGUCG
Method in brief: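 Fitness was computed with DiMSum as the error-weighted combination of replicate fold changes, kanamycin versus none, each normalised to wild type. The library randomised all eight intron nucleotides of the P1ex region, with the intron placed in the knt kanamycin-resistance gene on pET-22b(+) in E. coli BL21(DE3). Six replicate transformations were grown overnight at 37°C or 30°C on LB agar with or without 25 μg/mL kanamycin, plus 100 μg/mL carbenicillin, 50 μM IPTG and 0.2% rhamnose. Pooled colonies were amplicon-sequenced on an Illumina HiSeq 2500.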

| Sequence | self-splicing fitness (ln) (30 °C) | self-splicing fitness (ln) (37 °C) |
| --- | --- | --- |
| ACGAAGCAAUAUUACGAAAU | -3.34 ± 0.2 | -1.5 ± 0.17 |
| AUAAAGCAAUAUUACGAUCA | 0.0672 ± 0.054 | 0.203 ± 0.077 |
| UUGAAGCAAUAUUACGAUAU | -1.97 ± 0.075 | -1.03 ± 0.1 |
| ACCGAGCAAUAUUACGGGCG | -1.64 ± 0.083 | -0.0363 ± 0.088 |
| GGGUAGCAAUAUUACGUCUG | -1.21 ± 0.12 | -1.15 ± 0.14 |
| CUGGAGCAAUAUUACGCCGC | – | -1.1 ± 0.38 |
| CUACAGCAAUAUUACGGGGU | -3.62 ± 0.12 | -2.34 ± 0.14 |
| UAUCAGCAAUAUUACGGUUU | -0.764 ± 0.062 | -0.507 ± 0.07 |
| UGCGAGCAAUAUUACGGGCA | -2.84 ± 0.21 | -1.31 ± 0.18 |
| GUUCAGCAAUAUUACGGGAC | -2.39 ± 0.18 | -1.16 ± 0.19 |
| UAGAAGCAAUAUUACGUACG | -0.237 ± 0.1 | -0.721 ± 0.13 |
| CCGGAGCAAUAUUACGACGA | -0.828 ± 0.23 | -1.07 ± 0.24 |
| GAACAGCAAUAUUACGCGCG | -0.924 ± 0.064 | -0.265 ± 0.085 |
| AUGAAGCAAUAUUACGUGAC | -2.85 ± 0.13 | -1.63 ± 0.15 |
| AGAUAGCAAUAUUACGAAAU | -2.87 ± 0.13 | -0.838 ± 0.12 |
| AUGCAGCAAUAUUACGCUGA | -2.82 ± 0.19 | -1.35 ± 0.13 |
| UACCAGCAAUAUUACGCAAG | -2.3 ± 0.13 | -0.829 ± 0.13 |
| UAGCAGCAAUAUUACGACAU | -1.604 ± 0.013 | -0.682 ± 0.033 |
| CGUCAGCAAUAUUACGACCG | -0.855 ± 0.098 | -0.475 ± 0.12 |
| UGCCAGCAAUAUUACGAAAU | -2.86 ± 0.2 | -1.81 ± 0.17 |
| CCUGAGCAAUAUUACGGAGA | -2.39 ± 0.25 | -3.09 ± 0.35 |

| Sequence | self-splicing fitness (ln) (30 °C) | self-splicing fitness (ln) (37 °C) |
| --- | --- | --- |
| AGCCAGCAAUAUUACGACUA | -1.99 ± 0.14 | -1.5 ± 0.14 |
| CAGCAGCAAUAUUACGUACU | -2.54 ± 0.24 | -2.5 ± 0.32 |
| ACCCAGCAAUAUUACGGGAU | -2.6 ± 0.085 | -1.01 ± 0.076 |
| CUCAAGCAAUAUUACGUCUC | -4.33 ± 0.39 | -0.263 ± 0.2 |
| CUCUAGCAAUAUUACGACCU | -2.94 ± 0.3 | – |
| CAGGAGCAAUAUUACGCCGU | -4.09 ± 0.31 | -2.29 ± 0.29 |
| GAAUAGCAAUAUUACGCACC | -1.19 ± 0.23 | 0.185 ± 0.32 |
| UUGUAGCAAUAUUACGCUGU | -3.02 ± 0.35 | -2.49 ± 0.27 |
| GCUCAGCAAUAUUACGUUAG | -2.79 ± 0.13 | -0.765 ± 0.12 |
| UGGAAGCAAUAUUACGCGCG | 0.222 ± 0.15 | 0.698 ± 0.15 |
| UAGGAGCAAUAUUACGAAAG | – | -1.17 ± 0.23 |
| GUGAAGCAAUAUUACGAGUC | -2.58 ± 0.17 | -0.63 ± 0.23 |
| GGAAAGCAAUAUUACGGUUA | -1.33 ± 0.11 | -0.365 ± 0.099 |
| AAUCAGCAAUAUUACGUCUC | -0.509 ± 0.091 | -0.314 ± 0.093 |
| AAAUAGCAAUAUUACGGGUG | -1.49 ± 0.11 | -1.65 ± 0.14 |
| GUUGAGCAAUAUUACGGUAG | -4.24 ± 0.46 | -1.94 ± 0.41 |
| CUACAGCAAUAUUACGUACC | -3.08 ± 0.41 | -1.72 ± 0.43 |
| GGCUAGCAAUAUUACGUGGG | -2.64 ± 0.17 | -1.91 ± 0.2 |
| CACUAGCAAUAUUACGGUCU | -1.55 ± 0.078 | -0.782 ± 0.11 |
| UUCAAGCAAUAUUACGGUGU | -2.98 ± 0.18 | -2.49 ± 0.17 |
| CCAAAGCAAUAUUACGAAUG | -1.03 ± 0.07 | -0.166 ± 0.092 |

| Sequence | self-splicing fitness (ln) (30 °C) | self-splicing fitness (ln) (37 °C) |
| --- | --- | --- |
| GCAGAGCAAUAUUACGGAGA | – | -2.09 ± 0.43 |
| AGUCAGCAAUAUUACGUUGG | -2.9 ± 0.17 | -1.83 ± 0.18 |
| GGUAAGCAAUAUUACGACCA | -1.47 ± 0.17 | -0.643 ± 0.21 |
| AAACAGCAAUAUUACGAAAU | -2.72 ± 0.13 | -1.48 ± 0.13 |
| GUAUAGCAAUAUUACGAGGA | -2.45 ± 0.26 | -2.66 ± 0.38 |
| AUUGAGCAAUAUUACGGUAU | -2.06 ± 0.13 | -1.59 ± 0.18 |
| CGCCAGCAAUAUUACGUUGG | -2.64 ± 0.14 | -2.68 ± 0.24 |
| AUUAAGCAAUAUUACGCCGA | -1.23 ± 0.26 | 0.0906 ± 0.26 |
| UUCCAGCAAUAUUACGAAUA | -1.24 ± 0.15 | -0.772 ± 0.16 |
| GGGAAGCAAUAUUACGCAAA | -1.9 ± 0.24 | -2 ± 0.17 |
| ACCCAGCAAUAUUACGAGUU | -1.14 ± 0.048 | -0.101 ± 0.061 |
| GCAAAGCAAUAUUACGCUGG | -2.41 ± 0.13 | -0.395 ± 0.14 |
| UAAGAGCAAUAUUACGCGGA | -2.95 ± 0.28 | -2.35 ± 0.33 |
| AACUAGCAAUAUUACGCACU | -0.218 ± 0.084 | -0.0139 ± 0.11 |
| AAUGAGCAAUAUUACGCGUG | -2.11 ± 0.11 | -0.949 ± 0.1 |
| GCCAAGCAAUAUUACGGCAU | -3.55 ± 0.21 | -2.55 ± 0.19 |
| GGCGAGCAAUAUUACGCGAA | -2.45 ± 0.2 | -1.33 ± 0.16 |
| AAGGAGCAAUAUUACGAUAG | -4.31 ± 0.46 | -2.87 ± 0.43 |
| AGGUAGCAAUAUUACGGUUU | -0.613 ± 0.012 | -0.252 ± 0.033 |
